Patent US20260139017A1, “COMPOSITIONS AND METHODS USING REELIN IN ALZHEIMER'S DISEASE” (The General Hospital Corporation, priority 2022, published 2026)

How the values were obtained:
[1] = system: pDAB1; assay: Trans-nasal (MIND) delivery of mini-RELN in mice, brain pDAB1 western blot; format: in vivo; conditions: WT male mice, 72 h post-trans-nasal delivery
From the text: We used a MIND procure (trans nasal delivery using Minimally Invasive Nasal Depot (MIND), Padmakumar et al., J Control Release. 2021 Mar. 10; 331: 176-186) or intraperitoneal injection to administer miniRELN constructs into mice. MIND leverages the olfactory nerve to bypass the blood brain barrier. […] Using the MIND methodology provides one method of reaching the entorhinal cortex with minimal systemic exposure. […] (Jackson Laboratory) were housed under regular light/night cycle. All procedures were conducted under approved IACUC animal protocols. Prior to incision, the nasal region was shaved and cleaned using betadine and 70% alcohol and mouse subcutaneously injected with buprenorphine HCl and meloxicam (5 mg/kg). The nasal cavity was then opened using a scalped and nasal mucosa exposed using a microdrill. Once the mucosa was exposed, gel dispersion of either PBS or mini-RELN constructs (Innovagen) in 20% Pluronic (Sigma Aldrich) was subcutaneously delivered in the surgically-generated pocket. Mice were injected with meloxicam for 3 days prior euthanasia at day 4 to collect the brain tissue used for post-mortem analysis.
Western blotting was performed as follows. 20 ug protein homogenates were prepared under reducing and denaturing conditions using Laemmli buffer enriched with 10 mM DTT and 5 min boiling. Samples were electrophoretically separated in a 4-20% Gel at 90V and protein transferred to a PVDF membrane using iBlot™ 2 Dry Blotting System. The membrane was blocked using Intercept® (TBS) Blocking Buffer for 2 hours. We detected pDAB1 (Tyr232; 1:1000, rabbit, #3325 Cell signaling), and Beta actin (1:5000, mouse, #66009-1-Ig, Proteintech). Antibodies were diluted using Intercept® (TBS) Blocking Buffer and incubated overnight at 4C under gentle shaking. Prior secondary antibody incubation, membranes were washes 2 times using TBS-T for 10 minutes. As secondary antibodies we used IR Dye 800n CW Goat-anti-Rabbit (925-32211, Licor) and IR Dye 680 CW Goat-anti-Mouse (925-68070, Licor) both diluted 1:10000 in blocking buffer for 1 h at room temperature under gentle shaking. Membranes were washed three times with TBS-T prior IR detection using Odyssey imager. To quantify the results, each band was quantified using ImageJ and data expressed as pDAB1:βActin ratio normalized to the control.

[2] = system: pTau S396; assay: Intraperitoneal mini-RELN in MAPT P301S Tau Tg mice, pTau S396 immunofluorescence; format: in vivo; conditions: 6 months old female MAPT P301S mice, intraperitoneal days 1-4, hippocampal and entorhinal regions, vs PBS
Method: The effects of systemic delivery of mini-RELN peptides was evaluated in vivo. 6 months old female MAPT P301S Tau Tg mice were injected intraperitoneally on day 1 with 500 μL and on day 2-4 with 250 μL solutions of either vehicle (PBS) or mini-RELN peptides. On Day 5, mice were euthanized with saturating concentration CO2 gas and intracardially perfused with 4% PFA. Brains were subsequently harvested and used for histological analyses.
Immunofluorescence staining of murine brains was performed as follows. 24 hours post fixation with 4% PFA at 4° C., sagittal brain sections were obtained at 1 mm thickness using a stainless-steel brain matrix. The entorhinal-hippocampal section of each brain was chosen for Clarity using Binaree® Tissue Clearing™ Kit (HRTC-012) following the kit guidelines. Sections were incubated with pTauS396 primary antibody for 72 h followed by secondary antibody: Alexa 647, and DAPI for 1 h. Subsequently, sections were imaged using confocal SP8 microscope for quantification. Fourteen images were taken at 63× magnification per group. Fluorescence intensity of pTau was quantified automatically using Matlab (2021a). Otsu's thresholding method was used to get a mask of the image signal and then the mean intensity of the signal was computed.

[3] = system: pDAB1 (Tyr232); assay: HRECs treated 5 minutes with recombinant mini-RELN, pDAB1 western blot; format: cell-based, human
In short: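 Serum-starved (2 h) HRECs at passage 7 given recombinant mini-RELN constructs or mouse Reelin at 4 ug/mL for 5 min, then lysed. Western blot of 3.5 ug lysate for pDAB1 (Tyr232) with IR detection. Value is pDAB1:total protein band ratio normalized to control.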

B1: RAP-FcIgG-CTRH3447R (protein)
chain: MYRMQLLSCIALSLALVTNSMAPRRVRSFLRGLPALLLLLLFLGPWPAASHGGKYSREKNQPKPSPKRESGEEFRMEKLNQLWEKAQRLHLPPVRLAELHADLKIQERDELAWKKLKLDGLDEDGEKEARLIRNLNVILAKYGLDGKKDARQVTSNSLSGTQEDGLDDPRLEKLWHKAKTSGKFSGEELDKLWREFLHHKEKVHEYNVLLETLSRTEEIHENVISPSDLSDIKGSVLHSRHTELKEKLRSINQGLDRLRRVSHQGYSTEAEFEEPRVIDLWDLAQSANLTDKELEAFREELKHFEAKIEKHNHYQKQLEIAHEKLRHAESVGDGERVSRSREKHALLEGRTKELGYTVKKHLQDLSGRISRARHNELTGGSGGNSAPLERKSSVECPPCPAPPVAGPSVFLFPPKPKDTLMISRTPEVTCVVVDVSHEDPEVQFNWYVDGVEVHNAKTKPREEQFNSTFRVVSVLTVVHQDWLNGKEYKCKVSNKGLPAPIEKTISKTKGQPREPQVYTLPPSREEMTKNQVSLTCLVKGFYPSDIAVEWESNGQPENNYKTTPPMLDSDGSFFLYSKLTVDKSRWQQGNVFSCSVMHEALHNHYTQKSLSLSPGARTGGGGSGGGGSSTRKQNYMMNFSRQHGLRRFYNRRRRSLRRYP
pDAB1 levels in the hippocampus [1]: increased | pDAB1 levels in the midbrain [1]: increased | pTau S396 fluorescence intensity [2]: decreased levels of pTau S396 signaling | efficacy at RELN signaling (pDAB1) relative to comparators ([3]; 5 minutes treatment): more effective than controls | pDAB1 levels ([3]; 5 minutes, 4 ug/mL recombinant protein): increased pDAB1 levels
